For this test, the target named is rHA1_(1-326), recombinant hemagglutinin HA1 fragment (residues 1-326) of influenza A virus H1N1 strain A/California/04/2009 (influenza A virus subtype H1N1 strain A/California/04/2009). Nature of the test: SEC. On the technique in general: Size exclusion chromatography separates by hydrodynamic size, large species first.

The text below walks through data of PMC6081378.

As for “rHA1_(1-326), recombinant hemagglutinin HA1 fragment (residues 1-326) of influenza A virus H1N1 strain A/California/04/2009 (domain or fragment)”, the percent of the protein as dimers and trimers worked out at 70.5%.
